Target: chondroitinase-treated bovine aggrecan, P13608
Sequence (P13608 17-2364): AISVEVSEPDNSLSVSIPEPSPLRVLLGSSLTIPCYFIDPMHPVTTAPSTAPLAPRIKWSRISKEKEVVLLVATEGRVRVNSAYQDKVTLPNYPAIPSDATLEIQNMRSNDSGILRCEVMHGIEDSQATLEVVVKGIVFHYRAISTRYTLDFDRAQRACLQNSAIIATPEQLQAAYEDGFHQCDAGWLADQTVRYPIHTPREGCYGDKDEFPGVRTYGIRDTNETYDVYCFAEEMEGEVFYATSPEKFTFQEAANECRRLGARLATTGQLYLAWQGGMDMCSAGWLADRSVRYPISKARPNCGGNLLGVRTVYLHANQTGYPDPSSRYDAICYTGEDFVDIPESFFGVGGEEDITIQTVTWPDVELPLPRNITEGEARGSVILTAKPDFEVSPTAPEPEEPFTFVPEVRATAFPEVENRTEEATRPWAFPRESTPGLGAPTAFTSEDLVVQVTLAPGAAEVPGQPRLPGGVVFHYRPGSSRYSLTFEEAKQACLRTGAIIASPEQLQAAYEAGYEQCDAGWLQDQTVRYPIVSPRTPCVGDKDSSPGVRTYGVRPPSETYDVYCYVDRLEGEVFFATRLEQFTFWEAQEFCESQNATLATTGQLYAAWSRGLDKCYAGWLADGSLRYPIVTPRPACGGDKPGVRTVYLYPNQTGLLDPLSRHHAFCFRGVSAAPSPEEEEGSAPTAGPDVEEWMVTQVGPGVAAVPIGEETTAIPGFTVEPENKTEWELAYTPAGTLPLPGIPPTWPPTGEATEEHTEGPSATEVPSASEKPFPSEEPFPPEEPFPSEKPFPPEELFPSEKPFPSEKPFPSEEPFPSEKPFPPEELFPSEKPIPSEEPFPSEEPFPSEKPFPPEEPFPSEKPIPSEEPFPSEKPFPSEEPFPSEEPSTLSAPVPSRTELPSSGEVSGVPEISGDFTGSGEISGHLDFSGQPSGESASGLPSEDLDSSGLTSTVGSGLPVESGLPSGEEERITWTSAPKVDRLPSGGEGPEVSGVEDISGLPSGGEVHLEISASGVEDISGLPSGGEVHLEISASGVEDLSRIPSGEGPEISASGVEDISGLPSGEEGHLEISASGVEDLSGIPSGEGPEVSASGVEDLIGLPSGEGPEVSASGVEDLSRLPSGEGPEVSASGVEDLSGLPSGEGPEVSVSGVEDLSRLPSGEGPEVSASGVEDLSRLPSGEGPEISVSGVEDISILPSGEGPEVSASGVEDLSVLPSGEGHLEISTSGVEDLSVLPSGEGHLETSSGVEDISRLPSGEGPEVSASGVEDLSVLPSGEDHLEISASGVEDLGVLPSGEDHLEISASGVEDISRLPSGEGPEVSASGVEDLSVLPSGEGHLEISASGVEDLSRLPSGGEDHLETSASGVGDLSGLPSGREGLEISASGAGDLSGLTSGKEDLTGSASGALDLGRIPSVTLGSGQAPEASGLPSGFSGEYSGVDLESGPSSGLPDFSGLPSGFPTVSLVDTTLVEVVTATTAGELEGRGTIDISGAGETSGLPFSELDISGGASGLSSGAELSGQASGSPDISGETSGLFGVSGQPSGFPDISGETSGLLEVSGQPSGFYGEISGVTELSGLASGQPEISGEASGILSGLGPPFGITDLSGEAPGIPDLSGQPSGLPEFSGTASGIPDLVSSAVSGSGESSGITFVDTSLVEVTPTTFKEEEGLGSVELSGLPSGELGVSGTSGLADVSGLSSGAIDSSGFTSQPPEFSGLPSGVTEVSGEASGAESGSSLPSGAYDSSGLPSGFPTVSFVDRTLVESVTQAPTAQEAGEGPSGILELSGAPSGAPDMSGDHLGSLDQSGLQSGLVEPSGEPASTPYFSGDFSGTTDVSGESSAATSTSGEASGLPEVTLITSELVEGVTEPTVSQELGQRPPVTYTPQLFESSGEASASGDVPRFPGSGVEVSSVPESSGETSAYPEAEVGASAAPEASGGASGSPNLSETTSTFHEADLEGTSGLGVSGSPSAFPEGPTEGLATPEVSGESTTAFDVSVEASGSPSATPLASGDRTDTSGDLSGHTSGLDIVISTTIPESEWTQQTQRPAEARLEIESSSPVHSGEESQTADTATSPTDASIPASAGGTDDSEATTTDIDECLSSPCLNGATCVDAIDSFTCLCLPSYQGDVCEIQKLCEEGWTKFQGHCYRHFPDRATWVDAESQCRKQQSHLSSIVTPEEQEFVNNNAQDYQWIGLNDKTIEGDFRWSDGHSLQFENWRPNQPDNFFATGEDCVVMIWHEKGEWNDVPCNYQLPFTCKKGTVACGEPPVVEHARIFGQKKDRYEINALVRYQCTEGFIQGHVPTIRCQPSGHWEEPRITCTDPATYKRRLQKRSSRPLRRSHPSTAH

Row | Protein | aggrecanase activity (ELISA) | % aggrecan cleavage (3B3 ELISA assay)
1 | ADAMTS-5 active site mutant (E411-Q411) (protein) SISRARQVELLLVADASMARLYGRGLQHYLLTLASIANRLYSHASIENHIRLAVVKVVVLGDKDKSLEVSKNAATTLKNFCKWQHQHNQLGDDHEEHYDAAILFTREDLCGHHSCDTLGMADVGTICSPERSCAVIEDDGLHAAFTVAHQIGHLLGLSHDDSKFCEETFGSTEDKRLMSSILTSIDASKPWSKCTSATITEFLDDGHGNCLLDLPRKQILGPEELPGQTYDATQQCNLTFGPEYSVCPGMDVCARLWCAVVRQGQMVCLTKKLPAVEGTPCGKGRICLQGKCVDKTKKKYYSTSSHGNWGSWGSWGQCSRSCGGGVQFAYRHCNNPAPRNNGRYCTGKRAIYRSCSLMPCPPNGKSFRHEQCEAKNGYQSDAKGVKTFVEWVPKYAGVLPADVCKLTCRAKGTGYYVVFSPKVTDGTECRPYSNSVCVRGKCVRTGCDGIIGSKLQYDKCGVCGGDNSSCTKIVGTFNKKSKGYTDVVRIPEGATHIKVRQFKAKDQTRFTAYLALKKKNGEYLINGKYMISTSETIIDINGTVMNYSGWSHRDDFLHGMGYSATKEILIVQILATDPTKPLDVRYSFFVPKKSTPKVNSVTSHGSNKVGSHTSQPQWVTGPWLACSRTCDTGWHTRTVQCQDGNRKLAKGCPLSQRPSAFKQCLLKKC | lacked aggrecanase activity as shown by ELISA (FIG. 16) | –
2 | truncated aggrecanase-2 from amino acid #1 through amino acid #628 (protein) SISRARQVELLLVADASMARLYGRGLQHYLLTLASIANRLYSHASIENHIRLAVVKVVVLGDKDKSLEVSKNAATTLKNFCKWQHQHNQLGDDHEEHYDAAILFTREDLCGHHSCDTLGMADVGTICSPERSCAVIEDDGLHAAFTVAHEIGHLLGLSHDDSKFCEETFGSTEDKRLMSSILTSIDASKPWSKCTSATITEFLDDGHGNCLLDLPRKQILGPEELPGQTYDATQQCNLTFGPEYSVCPGMDVCARLWCAVVRQGQMVCLTKKLPAVEGTPCGKGRICLQGKCVDKTKKKYYSTSSHGNWGSWGSWGQCSRSCGGGVQFAYRHCNNPAPRNNGRYCTGKRAIYRSCSLMPCPPNGKSF | – | truncated aggrecanases of the invention having one or both TSP domains deleted are biologically active
3 | truncated aggrecanase-2 from amino acid #1 through amino acid #567 (protein) SISRARQVELLLVADASMARLYGRGLQHYLLTLASIANRLYSHASIENHIRLAVVKVVVLGDKDKSLEVSKNAATTLKNFCKWQHQHNQLGDDHEEHYDAAILFTREDLCGHHSCDTLGMADVGTICSPERSCAVIEDDGLHAAFTVAHEIGHLLGLSHDDSKFCEETFGSTEDKRLMSSILTSIDASKPWSKCTSATITEFLDDGHGNCLLDLPRKQILGPEELPGQTYDATQQCNLTFGPEYSVCPGMDVCARLWCAVVRQGQMVCLTKKLPAVEGTPCGKGRICLQGKCVDKTKKKYYSTSSH | – | truncated aggrecanases of the invention having one or both TSP domains deleted are biologically active

Source: patent US20040054149
